From EP4578874A1 (SunRock Biopharma S.L., dated 2025)

B1: SRB1 (antibody, V domains shown)
VH: EVQLVESGGGLVKPGGSLRLSCAASGFTFSKFWMNWVRQAPGKGLEWVGEIRLKSNNYATHYAESVKGRFTISRDDSKNTLYLQMNSLKTEDTAVYYCTSDGWFAYWGQGTLVTVSS
VL: DVQMTQSPSSLSASVGDRVTITCRSSQSLVHSNGNTYLNWYQQKPGKAPKLLIYKVSNRFSGVPSRFSGSGSGTDFTLTISSLQPEDFATYYCSQSTHFPRTFGGGTKVEIKR
notes: Detected with anti-human Fc, so it has a human Fc; also called humanised version of the antibody 92R; positive control
B2: huC9Mab-16-VL2 (antibody, V domains shown)
VH: EVQLVESGGGLVKPGGSLRLSCAASGFTFSDYWMNWVRQAPGKGLEWVGEIRSKSKNYATHYEESVRGRFTISRDDSKNTLYLQMNSLKTEDTAVYYCMFFYSPYWGQGTLVTVSS
VL: DVVMTQSPSSLSASVGDRVTITCRSSQSLVHSNGITFLHWYQQKPGKAPKLLIYKVSNRFSGVPSRFSGSGSGTDFTLTISSLQPEDFATYYCSQTTHVPWTFGGGTKVEIK
notes: Humanized IgG made in HEK293-6E cells
B3: huC9Mab19-VL2 pHrodo (antibody, V domains shown)
VH: EVQLVESGGGLVKPGGSLRLSCAASGFTFSNYWMDWVRQAPGKGLEWVGEIRSKSNNYATHYAESMKGRFTISRDDSKNTLYLQMNSLKTEDTAVYYCAFYYSPYWGQGTLVTVSS
VL: DVVMTQSPSSLSASVGDRVTITCRSSQSLLHSNGNTFLHWYQQKPGKAPKLLIYKVSNRFSGVPSRFSGSGSGTDFTLTISSLQPEDFATYYCSQTTHLPWTFGGGTKVEIK
modifications: pHrodo fluorophore label (sites not given)
notes: also called pHrodo-labeled huC9Mab19-VL2
B4: huC9Mab-19-VL2 (antibody, V domains shown)
VH: EVQLVESGGGLVKPGGSLRLSCAASGFTFSNYWMDWVRQAPGKGLEWVGEIRSKSNNYATHYAESMKGRFTISRDDSKNTLYLQMNSLKTEDTAVYYCAFYYSPYWGQGTLVTVSS
VL: DVVMTQSPSSLSASVGDRVTITCRSSQSLLHSNGNTFLHWYQQKPGKAPKLLIYKVSNRFSGVPSRFSGSGSGTDFTLTISSLQPEDFATYYCSQTTHLPWTFGGGTKVEIK
notes: as for B2
B5: IAb01 (antibody, V domains shown)
VH: EVKVEESGGGLVQPGGSMKLSCVVSGLTFSNFWMTWVRQSPEKGLEWVAEIRLKSNNYATHYAESVKGRFTISRDDSRSSVFLQMNNLRAEDTGIYYCTTDGWFAFWGQGTLVTVSA
VL: QIVLTQSPTIMSASPGEKVTITCSASSSVSYMHWFQQKPGTSPKLWIYSTSNLASGVPARFSGSGSGTSYSLTISRMEAEDAATYYCQQRSSYPFTFGSGTKLEIKR
notes: Murine antibody
B6: IAb02 (antibody, V domains shown)
VH: EVKVEESGGGLVQPGGSMKLSCAASGFIFSNFWMNWVRQSPEKGLEWIAEIRLKSNNYATHYAESVKGRFTISRDDSKSSVYLQMNNLRAEDTGIYYCATDGWFAFWGQGTLVTVSA
VL: DVVMTQTPLSLPVSLGDQASISCRSSQSLVHSNGNTYLQWHLQKPGQSPKFLIYKVSNRFSGVPDRFSGSGSGTDFTLKISRVEAEDLGVYFCSQSTHVPRTFGGGTKLEIKR
notes: Murine antibody
B7: SRB1 pHrodo (antibody, V domains shown)
VH: EVQLVESGGGLVKPGGSLRLSCAASGFTFSKFWMNWVRQAPGKGLEWVGEIRLKSNNYATHYAESVKGRFTISRDDSKNTLYLQMNSLKTEDTAVYYCTSDGWFAYWGQGTLVTVSS
VL: DVQMTQSPSSLSASVGDRVTITCRSSQSLVHSNGNTYLNWYQQKPGKAPKLLIYKVSNRFSGVPSRFSGSGSGTDFTLTISSLQPEDFATYYCSQSTHFPRTFGGGTKVEIKR
modifications: pHrodo fluorophore label (sites not given)
notes: also called pHrodo-labeled SRB1
B8: huC9Mab16-VL2 pHrodo (antibody, V domains shown)
VH: EVQLVESGGGLVKPGGSLRLSCAASGFTFSDYWMNWVRQAPGKGLEWVGEIRSKSKNYATHYEESVRGRFTISRDDSKNTLYLQMNSLKTEDTAVYYCMFFYSPYWGQGTLVTVSS
VL: DVVMTQSPSSLSASVGDRVTITCRSSQSLVHSNGITFLHWYQQKPGKAPKLLIYKVSNRFSGVPSRFSGSGSGTDFTLTISSLQPEDFATYYCSQTTHVPWTFGGGTKVEIK
modifications: pHrodo fluorophore label (sites not given)
notes: also called pHrodo-labeled huC9Mab16-VL2
B9: C9Mab-16 (antibody, V domains shown)
VH: EVKLEESGGGLVLPGGSMKLSCVASGFTFSDYWMNWVRQSPEKGLEWVAEIRSKSKNYATHYEESVRGRCTISRDDSKSSVYLQMNNLRAEDTGIYFCMFFYSPYWGQGTLVTVSA
VL: DVVMTQTPLSLPVSLGDQASISCRSSQSLVHSNGITFLHWYLQKPGQSPKLLIYKVSNRFSGVPDRFSGSGSGTDFTLKISRVEAEDLGVYFCSQTTHVPWTFGGGTKLEIKR
notes: Murine parental antibody from hybridoma; also called C9M16; clone 16
B10: C9Mab-19 (antibody, V domains shown)
VH: EVKLEESGGGLVQPGGSMKLSCVASGFTFSNYWMDWVRQSPEKGLEWVAEIRSKSNNYATHYAESMKGRFTISRDDSKSSVYLQMINLRTEDTGIYYCAFYYSPYWGQGTLVTVSA
VL: DVVMTQTPLSLPVSLGDQASISCRSSQSLLHSNGNTFLHWYLQKPGQSPKLLIYKVSNRFSGVPDRFSGSGSGTDFTLKVSRVEAEDLGVYFCSQTTHLPWTFGGGTKLEIKR
notes: Murine parental antibody from hybridoma; also called C9M19; clone 19

What was measured:
[1] = target: T1, human CCR9 (C-C chemokine receptor type 9) (human, UniProt P51686 1-369); assay: cell-based or functional assay
T1 sequence: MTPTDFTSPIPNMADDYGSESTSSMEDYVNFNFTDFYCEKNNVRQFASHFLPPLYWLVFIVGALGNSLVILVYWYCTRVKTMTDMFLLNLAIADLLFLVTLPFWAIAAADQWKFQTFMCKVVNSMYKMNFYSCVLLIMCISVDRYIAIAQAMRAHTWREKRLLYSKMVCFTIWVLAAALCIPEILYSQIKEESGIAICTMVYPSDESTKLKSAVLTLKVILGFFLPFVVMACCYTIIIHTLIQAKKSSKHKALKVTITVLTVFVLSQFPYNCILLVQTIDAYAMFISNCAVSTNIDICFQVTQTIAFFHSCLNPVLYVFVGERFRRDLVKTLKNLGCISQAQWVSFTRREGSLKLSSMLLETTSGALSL

[2] = target: T1, human CCR9 (C-C chemokine receptor type …); assay: flow cytometry on MOLT-4 cells, unlabeled antibody, n=1
[3] = target: T1, human CCR9 (C-C chemokine receptor type …); assay: flow cytometry on MOLT-4 cells; antibody incubated 4 days at 23°C
[4] = target: T1, human CCR9 (C-C chemokine receptor type …); assay: flow cytometry on MOLT-4 cells; antibody incubated 4 days at 40°C
[5] = target: T1, human CCR9 (C-C chemokine receptor type …); assay: flow cytometry on MOLT-4 cells; antibody kept 4 days at 4°C (control)
[6] = target: T1, human CCR9 (C-C chemokine receptor type …); assay: flow cytometry on CCR9-expressing MOLT-4 cells, PE anti-human Fc, mean ± SD, n=3
[7] = target: T1, human CCR9 (C-C chemokine receptor type …); assay: flow cytometry on huCCR9-expressing HEK293 cells, PE anti-human Fc, mean ± SD, n=3
[8] = target: T2, CCR9 N-terminal peptide 1 (TPTDFTSPIPNMADDYGSESTSS) (human, biotinylated in the ELISA of Example 2 (site not stated)); assay: ELISA, plate coated with biotinylated CCR9 N-terminal peptide 1, anti-human Fc detection, n=2
T2 construct: Biotin is stated for the ELISA; also called N-terminal 1; biotinylated peptide from the N-terminal region of huCCR9
T2 peptide: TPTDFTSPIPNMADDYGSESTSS

[9] = target: T3, N-terminal 6 (SPIPNMADDYG) (human); assay: peptide inhibition: 1 µg/mL antibody pre-incubated with 100 µg/mL peptide, then binding to MOLT-4 cells by flow cytometry
T3 construct: also called peptide N-terminal 6
T3 peptide: SPIPNMADDYG

[10] = target: T1, human CCR9 (C-C chemokine receptor type …); assay: flow cytometry on MOLT-4 cells, pHrodo-labeled antibody, n=1
[11] = target: T1, human CCR9 (C-C chemokine receptor type …); assay: screen of murine hybridoma antibodies for affinity to CCR9 (ELISA, then flow cytometry); format not detailed
hCCR9 peptide P11A-N12A [12] = target: T4, hCCR9 peptide P11A-N12A (human); assay: 2 x Ala-scan with substituted hCCR9 peptides (Fig. 9A)
T4 peptide: TDFTSPIAAMADDYGSEST

hCCR9 peptide N12A-M13A [13] = target: T5, hCCR9 peptide N12A-M13A (human); assay: as above
T5 peptide: TDFTSPIPAAADDYGSEST

hCCR9 peptide M13A-A14G [14] = target: T6, hCCR9 peptide M13A-A14G (human); assay: as above
T6 peptide: TDFTSPIPNAGDDYGSEST

hCCR9 peptide D15A-D16A [15] = target: T7, hCCR9 peptide D15A-D16A (human); assay: as above
T7 peptide: TDFTSPIPNMAAAYGSEST

hCCR9 peptide D16A-Y17A [16] = target: T8, hCCR9 peptide D16A-Y17A (human); assay: as above
T8 peptide: TDFTSPIPNMADAAGSEST

hCCR9 peptide P11A-N12A [17] = target: T4, hCCR9 peptide P11A-N12A; assay: 2 x Ala-scan with substituted hCCR9 peptides (Fig. 9B)
hCCR9 peptide N12A-M13A [18] = target: T5, hCCR9 peptide N12A-M13A; assay: as above
hCCR9 peptide M13A-A14G [19] = target: T6, hCCR9 peptide M13A-A14G; assay: as above
hCCR9 peptide D15A-D16A [20] = target: T7, hCCR9 peptide D15A-D16A; assay: as above
hCCR9 peptide D16A-Y17A [21] = target: T8, hCCR9 peptide D16A-Y17A; assay: as above

Row | Binder | EC50 of cytotoxicity (ADCC, specific lysis of CFSE-stained MOLT-4 cells), PBMC batch HN#1 [1] [pM] | EC50 of cytotoxicity (ADCC, specific lysis of CFSE-stained MOLT-4 cells), PBMC batch HN#2 [1] [pM] | EC50 [2] [pM] | EC50 [3] [pM] | EC50 [4] [pM] | EC50 [5] [pM] | EC50 [6] [pM] | EC50 [7] [pM] | EC50 [8] [pM] | EC50 [10] [pM] | also measured
1 | B1 | 0.8 | 3 | 70 | 20 | 50 | 50 | 40 | 40 | 19200 |  | 
2 | B2 | 5 | 10 | 270 | 400 | 250 | 400 | 240 | 100 | 546 |  | binding result [9]: binds
3 | B3 |  |  |  |  |  |  |  |  |  | 2050 | 
4 | B4 | 230 | 60 | 600 | 2040 | 2000 | 1860 | 590 | 920 | 14100 |  | binding result [9]: binds
5 | B5 |  |  |  |  |  |  |  |  |  |  | binding result [11]: binds
6 | B6 |  |  |  |  |  |  |  |  |  |  | binding result [11]: binds
7 | B7 |  |  |  |  |  |  |  |  |  | 80 | 
8 | B8 |  |  |  |  |  |  |  |  |  | 510 | 
9 | B9 |  |  |  |  |  |  |  |  |  |  | binding result (hCCR9 peptide P11A-N12A [12]): no binding; binding result (hCCR9 peptide N12A-M13A [13]): no binding; binding result (hCCR9 peptide M13A-A14G [14]): no binding; binding result (hCCR9 peptide D15A-D16A [15]): no binding; binding result (hCCR9 peptide D16A-Y17A [16]): no binding
10 | B10 |  |  |  |  |  |  |  |  |  |  | binding result (hCCR9 peptide P11A-N12A [17]): no binding; binding result (hCCR9 peptide N12A-M13A [18]): no binding; binding result (hCCR9 peptide M13A-A14G [19]): no binding; binding result (hCCR9 peptide D15A-D16A [20]): no binding; binding result (hCCR9 peptide D16A-Y17A [21]): no binding
